# B1: repair peptide R1 (peptide)
# peptide: GPANVET
# notes: Linear 7-residue peptide made by chemical synthesis; also called R1 peptide; GPANVET
# Biological target: T1, fibroblast growth factor receptor 2 (FGFR2)
# T1 construct: also called membrane receptor FGFR2
# Assay: isothermal titration calorimetry (ITC)
# From the text: 1. Detection of the Affinity Between the Repair Peptide R1 and FGFR2 by Using the ITC Method The affinity was detected by an isothermal totration calorimetry (ITC), and the detection result was shown in FIG. 1. […] (The K denoted the affinity constant, and the Kd denoted the dissociation constant. The larger the K was and the smaller the Kd was, the stronger the affinity was).
# T1 sequence (P21802 22-821): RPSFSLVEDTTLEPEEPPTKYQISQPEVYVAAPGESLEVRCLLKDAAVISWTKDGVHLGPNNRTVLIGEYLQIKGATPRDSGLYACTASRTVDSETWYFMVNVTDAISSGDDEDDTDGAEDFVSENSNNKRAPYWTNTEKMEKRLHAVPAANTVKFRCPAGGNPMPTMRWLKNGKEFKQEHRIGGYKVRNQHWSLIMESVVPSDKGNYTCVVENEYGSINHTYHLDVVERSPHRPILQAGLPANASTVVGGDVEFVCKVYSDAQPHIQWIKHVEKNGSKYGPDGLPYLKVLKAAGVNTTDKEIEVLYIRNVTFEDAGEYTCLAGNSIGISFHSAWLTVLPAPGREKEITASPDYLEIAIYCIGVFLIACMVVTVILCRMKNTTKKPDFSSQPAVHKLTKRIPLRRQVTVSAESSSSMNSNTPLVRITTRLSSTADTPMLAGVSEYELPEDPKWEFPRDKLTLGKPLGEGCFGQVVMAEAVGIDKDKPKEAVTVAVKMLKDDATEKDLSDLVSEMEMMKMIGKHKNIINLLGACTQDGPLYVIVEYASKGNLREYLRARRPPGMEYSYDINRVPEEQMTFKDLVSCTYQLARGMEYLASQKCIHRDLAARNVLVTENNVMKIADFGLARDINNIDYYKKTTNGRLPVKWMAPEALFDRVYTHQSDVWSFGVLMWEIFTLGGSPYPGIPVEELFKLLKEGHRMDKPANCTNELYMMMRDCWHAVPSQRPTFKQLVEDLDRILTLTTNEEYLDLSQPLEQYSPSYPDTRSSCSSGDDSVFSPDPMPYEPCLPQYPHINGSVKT
binder,measurement,value
B1,Ka,7.35e+08 M⁻¹
same,Kd,~1.37 nM
